Laboratory results taken from the supplement of paper PMC12764529.
± gives the half width of the 95% confidence interval.

What was measured:
[1] = folding stability dG unfold from chymotrypsin proteolysis; higher = more stable
Description: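 Folding stability of de novo designed mini-proteins (<80 aa, no Cys; designed by TrROS, TrMRF, ProteinMPNN and the joint model) was measured by cDNA display proteolysis with trypsin and chymotrypsin. Each protease was used at 11 concentrations in a threefold dilution series plus a no-protease condition. K50 was inferred by Bayesian fitting of sequencing counts, and dG unfold was derived against a sequence-predicted unfolded-state K50 (Tsuboyama et al. method). Sequences shown include variable-length N-terminal GS-type padding (SAGGSAGG...) inside a display construct carrying a PA tag. Rows were kept only if the AF2 dimer inter-PAE was >15, to exclude likely homo-oligomers.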

[2] = folding stability dG unfold (combined trypsin and chymotrypsin); higher = more stable
Outline: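 Sequencing followed digestion of designed mini-proteins with trypsin and chymotrypsin, each at 11 concentrations in threefold dilutions together with a no-protease condition. The mini-proteins were under 80 residues, had no cysteine, sat in a PA-tagged cDNA display construct, and were kept only if AlphaFold2 dimer inter-PAE was above 15. From the counts, Bayesian fitting gave K50, and unfolding free energy was derived against a sequence-predicted unfolded-state K50 and a shared folded-state K50, per protease or combined.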

SAGGSAGGSAGMVVETEVLETTPPGRTVRTRTTTREKTPDNAPVTTESESVTEVPSPPLESAGGSAGGSAGG [r11_689_JUSTAS]
folding stability dG unfold [1]: 0.615 ± 0.026 kcal/mol | folding stability dG unfold [2]: 0.273 ± 0.081 kcal/mol

SAGGSAGGSAGPKSIPLDNATVTEFDSPNGDKVFIFSHPNKKKRLAILKDGKLVKEIPIESAGGSAGGSAGG [r11_1038_TrMRF]
folding stability dG unfold [1]: 0.0908 ± 0.31 kcal/mol | folding stability dG unfold [2]: -0.26 ± 0.3 kcal/mol

SAGGSAGGSAGPTITYHPDGRVRIDLHLPNGELLDTGVITPDEAVRLLLETGVRLRTIRPSAGGSAGGSAGG [r11_521_TrMRF]
folding stability dG unfold [1]: 0.662 ± 0.11 kcal/mol | folding stability dG unfold [2]: 0.166 ± 0.19 kcal/mol

SAGGSAGGSAGPVIRIPDATVTTDPATGTLTVTTAGRTVTVPPGATVTVLPDGTVVVERPSAGGSAGGSAGG [r17_34_JUSTAS]
folding stability dG unfold [1]: 0.759 ± 0.035 kcal/mol | folding stability dG unfold [2]: -0.0514 ± 0.067 kcal/mol

SAGGSAGGSAGRTIMIPPNQTAEEAVNHLKEELPPGNKNVTINYWDGDGEWEKFEIEVKKSAGGSAGGSAGG [r17_215_TrROS]
folding stability dG unfold [1]: -0.616 ± 0.44 kcal/mol | folding stability dG unfold [2]: < -1 kcal/mol

SAGGSAGGSAGSAPAGALVTEEVSLEETETFFDPTTKKPLRTVRVTVPVKRERVVSPALPSAGGSAGGSAGG [r11_970_JUSTAS]
folding stability dG unfold [1]: -0.795 ± 0.69 kcal/mol | folding stability dG unfold [2]: < -1 kcal/mol

SAGGSAGGSAGSEVEKARNAALEARRAGVEEVTITMPEELKEKVTALAKEEGINLKIESESAGGSAGGSAGG [r11_371_JUSTAS]
folding stability dG unfold [1]: 0.0457 ± 0.19 kcal/mol | folding stability dG unfold [2]: -0.351 ± 0.36 kcal/mol

SAGGSAGGSAGSMPVTVTERVVTSETPLPTDELAVKTTVTYPDGTAADFTRLLPPDAPLESAGGSAGGSAGG [r11_429_JUSTAS]
folding stability dG unfold [1]: 0.875 ± 0.042 kcal/mol | folding stability dG unfold [2]: 0.158 ± 0.18 kcal/mol

SAGGSAGGSAGSSSFIRKGKDGSRITATPSPSYITISTFPLKGGGIVPSTKTTTLPPSLLSAGGSAGGSAGG [r11_88_JUSTAS]
folding stability dG unfold [1]: -0.915 ± 0.45 kcal/mol | folding stability dG unfold [2]: < -1 kcal/mol

SAGGSAGGSAGVKIRMRGPNGSESKIPVPPDAIQDKFPPGDPIRIPIHRHNNNFHMDIEPVSAGGSAGGSAG [r3_86_TrROS]
folding stability dG unfold [1]: 0.353 ± 0.043 kcal/mol | folding stability dG unfold [2]: -0.0674 ± 0.086 kcal/mol

SAGGSAGGSAKKELKIGNVEHNPGDGRYWANIQIKDGKPIVPVEFDDPQDPERFVKKAIKQLSAGGSAGGSA [r18_479_TrROS]
folding stability dG unfold [1]: -0.706 ± 0.41 kcal/mol | folding stability dG unfold [2]: < -1 kcal/mol

SAGGSAGGSAKTVEIPLKDLKPDKDGKYNYDEIQDQIKEKFPPNGIDKVDIDTPRQIWDQFRSAGGSAGGSA [r18_72_TrROS]
folding stability dG unfold [1]: 0.157 ± 0.21 kcal/mol | folding stability dG unfold [2]: -0.329 ± 0.42 kcal/mol

SAGGSAGGSALPPGEPVEFPWRIKMGGEEHDVKRTVYRDPDGNVKLNIEIPMPPGNFEIEPVSAGGSAGGSA [r18_428_TrROS]
folding stability dG unfold [1]: 0.206 ± 0.22 kcal/mol | folding stability dG unfold [2]: -0.451 ± 0.4 kcal/mol

SAGGSAGGSAMGPPVRRVTITLSDGTRYEVDVAPDDSVAAVRAPLAAHPDVAAVTELTVEPSAGGSAGGSAG [r3_308_JUSTAS]
folding stability dG unfold [1]: 0.99 ± 0.044 kcal/mol | folding stability dG unfold [2]: 0.282 ± 0.084 kcal/mol

SAGGSAGGSAMKITINVSPDEPGVTIEEAKKRLAPHPVEKVTQTPLPSNSLVVTVDVSPEASAGGSAGGSAG [r3_335_JUSTAS]
folding stability dG unfold [1]: -0.457 ± 0.2 kcal/mol | folding stability dG unfold [2]: < -1 kcal/mol

SAGGSAGGSAMNVTTETRTDPVTGNTTTTTTYTDTGEVVTTTTTTPPETTTTTTTTTSLTKSAGGSAGGSAG [r3_126_JUSTAS]
folding stability dG unfold [1]: 0.982 ± 0.07 kcal/mol | folding stability dG unfold [2]: 0.524 ± 0.2 kcal/mol

SAGGSAGGSAMRAVVVAFPPDGPPRVFPTDDLAPDERRVTFDPETGELALIEVLPEDGDPASAGGSAGGSAG [r3_356_TrMRF]
folding stability dG unfold [1]: 0.0788 ± 0.23 kcal/mol | folding stability dG unfold [2]: < -1 kcal/mol

SAGGSAGGSAPLVLVAPGDAPVTVYPDPETGTYVAVFPDGSVLVAPVVGDVVPVVLLPPGLASAGGSAGGSA [r18_405_TrMRF]
folding stability dG unfold [1]: 0.677 ± 0.19 kcal/mol | folding stability dG unfold [2]: -0.31 ± 0.23 kcal/mol

SAGGSAGGSAPPIPIQIKIERPDPDGEKRERKIPVWIPPNNIDEIKDEAEEEGWRVKEVTISAGGSAGGSAG [r3_453_TrROS]
folding stability dG unfold [1]: 0.29 ± 0.05 kcal/mol | folding stability dG unfold [2]: -0.477 ± 0.18 kcal/mol

SAGGSAGGSARIDFPAIRRLLGSEAPAEDVVEAVEVIAKELAEELNLPDVEVDPRVVAPDELESAGGSAGGS [r12_666_TrMRF]
folding stability dG unfold [1]: 0.638 ± 0.068 kcal/mol | folding stability dG unfold [2]: 0.102 ± 0.22 kcal/mol

SAGGSAGGSASVGLLSVSTTPSGPGTTVTATTALPDGTVRTETRTEAGDGTATATTVTPLAASAGGSAGGSA [r18_79_JUSTAS]
folding stability dG unfold [1]: 0.271 ± 0.069 kcal/mol | folding stability dG unfold [2]: -0.295 ± 0.15 kcal/mol

SAGGSAGGSATLTVEVLEEVVEPVPDPSLTPVRLLVRDPANGELREAVVIRDPRRGALRLESAGGSAGGSAG [r3_1_JUSTAS]
folding stability dG unfold [1]: 0.0495 ± 0.22 kcal/mol | folding stability dG unfold [2]: -0.488 ± 0.22 kcal/mol

SAGGSAGGSEGFVLRVRRYRRRPDDRVRVPVSEAELEVLPELADAVARALREASPEVEVELRPSAGGSAGGS [r12_342_TrMRF]
folding stability dG unfold [1]: 0.0982 ± 0.27 kcal/mol | folding stability dG unfold [2]: < -1 kcal/mol

SAGGSAGGSELRVLDARPTPDGLVVNLVAPDRLLVTRVDTGADGSQSVSSVVLDAPESTEFDLSAGGSAGGS [r12_981_TrMRF]
folding stability dG unfold [1]: -0.918 ± 0.36 kcal/mol | folding stability dG unfold [2]: < -1 kcal/mol

SAGGSAGGSGGMMVTITLPPGVPPSVVRAALEPLGVRVEVRPVPPVVPFRYPEPGELVFSPLGSAGGSAGGS [r12_80_JUSTAS]
folding stability dG unfold [1]: 0.373 ± 0.17 kcal/mol | folding stability dG unfold [2]: < -1 kcal/mol

SAGGSAGGSGGMRVIRTKLEETEFFEETGESRTFEGLVIVEKEIYLPPYPRYPVFRFDEEKEASAGGSAGGS [r12_140_JUSTAS]
folding stability dG unfold [1]: -0.379 ± 0.41 kcal/mol | folding stability dG unfold [2]: -0.526 ± 0.42 kcal/mol

SAGGSAGGSGMVTVKRTVPPGNVEEAVNALTPPNLTITDVKVTELPDSVEVTVTVEDPFPGLVSAGGSAGGS [r12_445_JUSTAS]
folding stability dG unfold [1]: 0.587 ± 0.034 kcal/mol | folding stability dG unfold [2]: 0.0193 ± 0.12 kcal/mol

SAGGSAGGSGNPTPPAEPTVTLSTSDWNEVKERVEKAGLEYETFPGEGKVTLPASDFEKIKEESAGGSAGGS [r12_325_JUSTAS]
folding stability dG unfold [1]: 0.356 ± 0.049 kcal/mol | folding stability dG unfold [2]: -0.00313 ± 0.14 kcal/mol

SAGGSAGGSGSSVERSPSGEVVTTTPTAGGTLRTVHDPSGTRTLTDVASGKVLATYTPAVPVASAGGSAGGS [r12_235_JUSTAS]
folding stability dG unfold [1]: -0.638 ± 0.31 kcal/mol | folding stability dG unfold [2]: < -1 kcal/mol

SAGGSAGGSIPPGEEVPLRIKIWNPDNGKPRNEIPITMWVGDAEEIAEEFASTFPGYRVEIDPSAGGSAGGS [r12_21_TrROS]
folding stability dG unfold [1]: 0.717 ± 0.23 kcal/mol | folding stability dG unfold [2]: 0.102 ± 0.33 kcal/mol

SAGGSAGGSMIVVPLERELDPSEPGLTKEEVKAILEAKGLDVVDIKVSTDPAKGLTRAVAKVKSAGGSAGGS [r12_1052_JUSTAS]
folding stability dG unfold [1]: -0.851 ± 0.35 kcal/mol | folding stability dG unfold [2]: < -1 kcal/mol

SAGGSAGGSMLKVRIKIEIDGKTLEVEIEVPPGTTIEELAEALKKLFPGKEVKIVSVEVYELPSAGGSAGGS [r12_427_TrROS_Hall]
folding stability dG unfold [1]: 4.23 ± 0.14 kcal/mol | folding stability dG unfold [2]: 4.47 ± 0.25 kcal/mol

SAGGSAGGSMPVTVTVTTPDGTTQTLTADAPPAQTFTVTVTGPDGDPRPVRVTVHGTTVTVEGSAGGSAGGS [r12_784_TrMRF]
folding stability dG unfold [1]: 0.227 ± 0.22 kcal/mol | folding stability dG unfold [2]: < -1 kcal/mol

SAGGSAGGSMTETVEKTMPSNGATAEITKLPDGSIKVTIKGSNPVIETFPADEPLVIKPGLEGSAGGSAGGS [r12_1003_JUSTAS]
folding stability dG unfold [1]: 0.621 ± 0.095 kcal/mol | folding stability dG unfold [2]: 0.263 ± 0.18 kcal/mol

SAGGSAGGSMVVTERSVRPVPRLVRTSDPSTGSSSVHLDPGAVETVRVIEEPPTPELLANTGASAGGSAGGS [r20_172_JUSTAS]
folding stability dG unfold [1]: -1.36 ± 0.33 kcal/mol | folding stability dG unfold [2]: < -1 kcal/mol

SAGGSAGGSSKTVPLKSEEEVKAVLEKLPPDAEYTVTDSEGKSKKVSPDEISFTPDPLTITVSSAGGSAGGS [r12_907_JUSTAS]
folding stability dG unfold [1]: 0.362 ± 0.043 kcal/mol | folding stability dG unfold [2]: -0.131 ± 0.092 kcal/mol
